Here are results for one substance from PMC5074588.

For this assay, the target named is tubulins (tubulin dimers; paclitaxel-stabilized microtubules). Put plainly: co-sedimentation; different concentrations of the protein added to paclitaxel-stabilized microtubules (prepolymerized from 8 uM tubulins in Fig 5A, 5 uM in S7 Fig) in PEMT buffer (1 mM MgCl2, 1 mM EGTA, 100 mM PIPES, 20 uM taxol, pH 6.9); 25 C 30 min; 100,000g 30 min; SDS-PAGE, Coomassie.
tubulins (tubulin dimers; paclitaxel-stabilized microtubules), sequence (P02550 whole entry, chain 1 of 2): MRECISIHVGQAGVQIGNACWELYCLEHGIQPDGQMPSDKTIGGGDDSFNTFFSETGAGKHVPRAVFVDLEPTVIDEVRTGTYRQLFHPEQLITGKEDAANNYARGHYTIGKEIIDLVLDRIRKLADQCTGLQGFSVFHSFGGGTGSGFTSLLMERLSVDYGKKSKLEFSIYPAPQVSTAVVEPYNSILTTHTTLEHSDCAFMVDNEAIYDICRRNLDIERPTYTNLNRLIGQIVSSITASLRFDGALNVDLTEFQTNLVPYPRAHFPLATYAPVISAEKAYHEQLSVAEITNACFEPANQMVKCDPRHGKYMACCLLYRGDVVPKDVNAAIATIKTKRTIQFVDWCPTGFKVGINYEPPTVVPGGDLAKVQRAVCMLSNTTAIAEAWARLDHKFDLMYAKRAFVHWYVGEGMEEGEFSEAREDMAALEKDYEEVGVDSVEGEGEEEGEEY
tubulins (tubulin dimers; paclitaxel-stabilized microtubules), sequence (P02554 whole entry, chain 2 of 2, further chain): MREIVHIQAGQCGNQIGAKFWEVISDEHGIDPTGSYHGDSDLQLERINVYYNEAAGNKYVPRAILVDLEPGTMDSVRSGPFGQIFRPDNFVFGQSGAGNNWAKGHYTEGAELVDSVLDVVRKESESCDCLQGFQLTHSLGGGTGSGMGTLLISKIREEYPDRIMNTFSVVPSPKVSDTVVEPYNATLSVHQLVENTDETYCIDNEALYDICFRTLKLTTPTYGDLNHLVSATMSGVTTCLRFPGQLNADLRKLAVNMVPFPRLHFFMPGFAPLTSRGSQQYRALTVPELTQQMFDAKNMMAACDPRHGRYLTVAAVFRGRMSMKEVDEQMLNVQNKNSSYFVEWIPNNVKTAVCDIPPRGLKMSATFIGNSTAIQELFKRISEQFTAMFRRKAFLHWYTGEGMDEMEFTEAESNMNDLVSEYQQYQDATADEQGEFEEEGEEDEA

The substance “His-AUG8 (AUGMIN subunit 8) (natural protein)” displayed a stoichiometry N (M His-AUG8 per mole of tubulin dimers) of 0.22.
